Reference: FireProtDB (doi:10.1021/bi00128a004)
Where “and” joins values, the source holds several entries; their conditions need not be identical. Equal entries are not always repeated.

B1: Tissue-type plasminogen activator, P00750 (parent)
chain: MDAMKRGLCCVLLLCGAVFVSPSQEIHARFRRGARSYQVICRDEKTQMIYQQHQSWLRPVLRSNRVEYCWCNSGRAQCHSVPVKSCSEPRCFNGGTCQQALYFSDFVCQCPEGFAGKCCEIDTRATCYEDQGISYRGTWSTAESGAECTNWNSSALAQKPYSGRRPDAIRLGLGNHNYCRNPDRDSKPWCYVFKAGKYSSEFCSTPACSEGNSDCYFGNGSAYRGTHSLTESGASCLPWNSMILIGKVYTAQNPSAQALGLGKHNYCRNPDGDAKPWCHVLKNRRLTWEYCDVPSCSTCGLRQYSQPQFRIKGGLFADIASHPWQAAIFAKHRRSPGERFLCGGILISSCWILSAAHCFQERFPPHHLTVILGRTYRVVPGEEEQKFEVEKYIVHKEFDDDTYDNDIALLQLKSDSSRCAQESSVVRTVCLPPADLQLPDWTECELSGYGKHEALSPFYSERLKEAHVRLYPSSRCTSQHLLNRTVTDNMLCAGDTRSGGPQANLHDACQGDSGGPLVCLNDGRMTLVGIISWGLGCGQKDVPGVYTKVTNYLDWIRDNMRP

Variants of: B1
Details: Homo sapiens; pH 8; Thermal; DSC; Tris - Oac/100mM NaOAc 50 mM; structure 1PML; whole UniProt chain shown

Row | Variant | Tm | change of melting temperature, mutant - wild type (higher = more stable)
1 | W288S | 73.7 °C and 76.5 °C | -3.5 °C
2 | W288Y | 81.6 °C | –
3 | W288L | 71.7 °C and 73.9 °C | -3.7 °C
4 | W288F | – | -1.7 °C
